{"source": "patent US20260115255A1", "about": "(CYTUNE PHARMA, published 2026)", "binders": {"B1": {"name": "hCl1a (antibody)", "chain 1": "not shown", "chain 2": "DIQMTQSPSSLSASVGDRVTITCRASEDIYSNLAWYQQKPGKAPKLLIFSVKRLQDGVPSRFSGSGSGTDFTLTISSLQPEDFATYYCLQGSNFPLTFGQGTKVEIKRTVAAPSVFIFPPSDEQLKSGTASVVCLLNNFYPREAKVQWKVDNALQSGNSQESVTEQDSKDSTYSLSSTLTLSKADYEKHKVYACEVTHQGLSSPVTKSFNRGEC"}, "B2": {"name": "hCl1a AAA-RLI DANA (other)", "heavy 1": "QVQLVQSGAEVKKPGASVKVSCKASGYTFTDYAMHWVRQAPGQRLEWMGWINTYTGKPTYAQKFQGRVTITRDTSASTAYMELSSLRSEDTAVYYCARAVFYGYTMDAWGQGTLVTVSSASTKGPSVFPLAPSSKSTSGGTAALGCLVKDYFPEPVTVSWNSGALTSGVHTFPAVLQSSGLYSLSSVVTVPSSSLGTQTYICNVNHKPSNTKVDKKVEPKSCDKTHTCPPCPAPELLGGPSVFLFPPKPKDTLMISRTPEVTCVVVDVSHEDPEVKFNWYVDGVEVHNAKTKPREEQYNATYRVVSVLTVLHQDWLNGKEYKCKVSNKALPAPIAATISKAKGQPREPQVYTLPPSRDELTKNQVSLWCLVKGFYPSDIAVEWESNGQPENNYKTTPPVLDSDGSFFLYSKLTVDKSRWQQGNVFSCSVMHEALHNHYTQKSLSLSPGITCPPPMSVEHADIWVKSYSLYSRERYICNSGFKRKAGTSSLTECVLNKATNVAHWTTPSLKCIRDPALVHQRPAPPSGGSGGGGSGGGSGGGGSGGNWVNVISDLKKIEDLIQSMHIDATLYTESDVHPSCKVTAMKCFLLELQVISLESGDASIHATVEALIILANNSLSSNAQVTESGCKECEELEEKNIKEFLQSFVHIVQMFINTS", "heavy 2": "QVQLVQSGAEVKKPGASVKVSCKASGYTFTDYAMHWVRQAPGQRLEWMGWINTYTGKPTYAQKFQGRVTITRDTSASTAYMELSSLRSEDTAVYYCARAVFYGYTMDAWGQGTLVTVSSASTKGPSVFPLAPSSKSTSGGTAALGCLVKDYFPEPVTVSWNSGALTSGVHTFPAVLQSSGLYSLSSVVTVPSSSLGTQTYICNVNHKPSNTKVDKKVEPKSCDKTHTCPPCPAPELLGGPSVFLFPPKPKDTLMISRTPEVTCVVVDVSHEDPEVKFNWYVDGVEVHNAKTKPREEQYNATYRVVSVLTVLHQDWLNGKEYKCKVSNKALPAPIAATISKAKGQPREPQVYTLPPSRDELTKNQVSLSCAVKGFYPSDIAVEWESNGQPENNYKTTPPVLDSDGSFFLVSKLTVDKSRWQQGNVFSCSVMHEALHNHYTQKSLSLSPG", "light": "B1 chain 2", "notes": "See note of m4; also called SOT202-AAA-DANA; copies: 1 + 1 + 2"}, "B3": {"name": "hCl1a AAA-RLI DANA afuc (other)", "heavy 1": "B2 heavy 1", "heavy 2": "B2 heavy 2", "light": "B1 chain 2", "modifications": "Afucosylated Fc N-glycan (N297, both heavy chains); the letters cannot carry it.", "notes": "Same chains as m6, afucosylated; copies: 1 + 1 + 2"}, "B4": {"name": "hCl1a DLE-RLI DANA (other)", "heavy 1": "B2 heavy 1 with S241D, A300S, A332L, I334E, A335E, A336K", "heavy 2": "B2 heavy 2 with S241D, A300S, A332L, I334E, A335E, A336K", "light": "B1 chain 2", "notes": "also called SOT202-DLE-DANA; copies: 1 + 1 + 2"}, "B5": {"name": "hCl1a DLE-RLI DANA afuc (other)", "heavy 1": "B2 heavy 1 with S241D, A300S, A332L, I334E, A335E, A336K", "heavy 2": "B2 heavy 2 with S241D, A300S, A332L, I334E, A335E, A336K", "light": "B1 chain 2", "modifications": "Afucosylated Fc N-glycan (N297, both heavy chains); the letters cannot carry it.", "notes": "Same chains as m4, afucosylated; copies: 1 + 1 + 2"}}, "note": "Numbering of substitutions follows the chain as printed.", "data": [{"target": "T1, FcγRIIIa F158 (human, UniProt P08637 17-208)", "T1 construct": "Captured on the chip through an anti-His tag antibody; construct not described; also called hFcγRIIIaF158; CD16a F158", "test": "SPR; ratio of affinity (1/Kd) for FcγRIIIa F158 to affinity for FcγRIIb", "experimental": "(§1) SPR experiments were performed on a Biacore 8K (Cytiva, Chicago, IL, USA), using CM5 sensor chips (Cytiva) with an immobilization using THE His tag antibodies (Genscript). FcγRIIIa V158, FcγRIIIa F158 or FcγRIIb protein were used for capture with a contact time of 30 sec at a flow rate of […] in a 1×HBS-EP+ running buffer. Association/dissociation rates were measured for each tested immunocytokine at a flow rate of 30 μl/min with concentration serial dilution in a suitable range with an association time/dissociation time of 300 s/300 s except for constructs with DLE and DE with and without afucosylation, where association/dissociation time of 120 s/1200 s was applied.", "values": [{"binder": "B1", "A/I (F158)": 20.6}, {"binder": "B2", "A/I (F158)": 244}, {"binder": "B3", "A/I (F158)": 380}, {"binder": "B4", "A/I (F158)": 228}, {"binder": "B5", "A/I (F158)": 9370}]}, {"target": "T2, FcγRIIIa V158 (human, UniProt P08637 17-208)", "T2 construct": "Captured on the chip through an anti-His tag antibody, so it carries a His tag; construct not described; also called hFcγRIIIaV158; FcγIIIa V158", "test": "SPR; ratio of affinity (1/Kd) for FcγRIIIa V158 to affinity for FcγRIIb", "experimental": "as §1", "values": [{"binder": "B1", "A/I (V158)": 83.8}, {"binder": "B2", "A/I (V158)": 691}, {"binder": "B3", "A/I (V158)": 1010}, {"binder": "B4", "A/I (V158)": 464}, {"binder": "B5", "A/I (V158)": 13700}]}]}
